Legend:
Assay in all cases: pull-down; 20 μg GST-Atg13 (351–458) immobilised on 30 μL Glutathione Sepharose 4B; Atg17-Atg31-Atg29 complex at 10 μM; 4°C, 1 hour; 20 mM Tris pH 8, 150 mM NaCl, 0.1 mM TCEP; 3 washes; SDS-PAGE
Conditions in all cases: both partners purified
[1] = target: T1, Atg17-Atg31-Atg29 complex, wild type (Saccharomyces cerevisiae, UniProt Q06410 1-417; Q12421 1-196; Q12092 1-213)
T1 construct: Atg17, Saccharomyces cerevisiae; Atg31, Saccharomyces cerevisiae; Atg29, Saccharomyces cerevisiae; a TEV cleavage site follows the His6 tag; Atg17 is described as a dimer; cleavage of the His6 tag by TEV is not mentioned; also called recombinant ternary complex; Atg17-Atg31-Atg29 subcomplex of Atg1; source: E. coli BL21 (DE3), co-expressed from pST39, purified (Ni-NTA, Superose 6); copies: 2 + +
T1 sequence (looked up) 1: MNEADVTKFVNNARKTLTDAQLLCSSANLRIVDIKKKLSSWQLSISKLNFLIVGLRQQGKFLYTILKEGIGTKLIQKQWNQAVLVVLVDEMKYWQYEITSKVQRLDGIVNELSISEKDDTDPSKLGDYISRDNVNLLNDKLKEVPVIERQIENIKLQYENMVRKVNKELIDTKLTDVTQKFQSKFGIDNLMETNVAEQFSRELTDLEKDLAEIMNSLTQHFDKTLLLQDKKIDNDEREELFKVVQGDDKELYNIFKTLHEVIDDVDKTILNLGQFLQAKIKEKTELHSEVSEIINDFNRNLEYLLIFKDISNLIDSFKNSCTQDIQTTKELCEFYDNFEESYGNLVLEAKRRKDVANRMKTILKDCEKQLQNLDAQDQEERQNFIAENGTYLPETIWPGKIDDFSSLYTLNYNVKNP
T1 sequence (looked up) 2: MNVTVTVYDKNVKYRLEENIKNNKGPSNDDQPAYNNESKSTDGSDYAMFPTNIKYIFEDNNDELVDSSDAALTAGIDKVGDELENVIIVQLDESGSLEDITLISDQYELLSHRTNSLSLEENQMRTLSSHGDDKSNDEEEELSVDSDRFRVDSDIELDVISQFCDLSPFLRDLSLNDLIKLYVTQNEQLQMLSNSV
T1 sequence (looked up) 3: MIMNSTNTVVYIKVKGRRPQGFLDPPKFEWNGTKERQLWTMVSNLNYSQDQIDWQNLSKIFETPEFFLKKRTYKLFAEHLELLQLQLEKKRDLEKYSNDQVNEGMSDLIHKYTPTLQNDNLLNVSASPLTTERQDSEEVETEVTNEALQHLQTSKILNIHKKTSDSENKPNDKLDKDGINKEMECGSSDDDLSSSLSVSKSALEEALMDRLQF

[2] = target: T2, Atg17-Atg31-Atg29 complex with Atg17 mutant M1 (K318D/Q326D/K329D) (Saccharomyces cerevisiae, UniProt Q06410 1-417; Q12421 1-196; Q12092 1-213, K318D | Q326D | K329D)
T2 construct: Atg17, Saccharomyces cerevisiae; Atg31, Saccharomyces cerevisiae; Atg29, Saccharomyces cerevisiae; a TEV cleavage site follows the His6 tag; Mutations introduced into the Atg17-Atg31-Atg29 construct by quick-change mutagenesis; source: E. coli BL21 (DE3), co-expressed from pST39, purified (Ni-NTA, Superose 6); copies: 2 + +
T2 sequence (looked up) 1: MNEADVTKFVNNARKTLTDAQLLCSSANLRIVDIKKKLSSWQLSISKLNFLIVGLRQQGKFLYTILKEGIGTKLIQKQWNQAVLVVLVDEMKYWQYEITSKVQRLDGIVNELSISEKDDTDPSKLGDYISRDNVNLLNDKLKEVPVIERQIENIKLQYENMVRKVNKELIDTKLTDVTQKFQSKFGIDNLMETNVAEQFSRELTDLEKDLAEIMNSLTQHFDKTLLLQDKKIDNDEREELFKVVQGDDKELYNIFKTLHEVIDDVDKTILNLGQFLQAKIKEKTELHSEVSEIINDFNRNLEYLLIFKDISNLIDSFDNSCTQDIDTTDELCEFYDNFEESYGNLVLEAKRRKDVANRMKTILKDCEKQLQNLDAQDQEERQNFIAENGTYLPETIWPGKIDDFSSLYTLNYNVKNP
T2 sequence (looked up) 2: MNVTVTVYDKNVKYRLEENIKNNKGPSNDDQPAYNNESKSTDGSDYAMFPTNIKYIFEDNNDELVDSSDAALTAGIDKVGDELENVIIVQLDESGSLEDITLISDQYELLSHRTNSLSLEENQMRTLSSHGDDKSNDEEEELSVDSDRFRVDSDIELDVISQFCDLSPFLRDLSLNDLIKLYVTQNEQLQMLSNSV
T2 sequence (looked up) 3: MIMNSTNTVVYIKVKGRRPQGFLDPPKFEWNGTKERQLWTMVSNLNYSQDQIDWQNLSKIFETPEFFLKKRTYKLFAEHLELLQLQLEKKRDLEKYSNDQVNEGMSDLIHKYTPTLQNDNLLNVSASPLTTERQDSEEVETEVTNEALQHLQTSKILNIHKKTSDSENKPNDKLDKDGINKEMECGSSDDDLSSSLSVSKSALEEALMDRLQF

[3] = target: T3, Atg17-Atg31-Atg29 complex with Atg17 mutant M2 (K318D/K329D/Y93E/W94E) (Saccharomyces cerevisiae, UniProt Q06410 1-417; Q12421 1-196; Q12092 1-213, K318D | K329D | Y93E | W94E)
T3 construct: Atg17, Saccharomyces cerevisiae; Atg31, Saccharomyces cerevisiae; Atg29, Saccharomyces cerevisiae; a TEV cleavage site follows the His6 tag; Mutations introduced into the Atg17-Atg31-Atg29 construct by quick-change mutagenesis; source: E. coli BL21 (DE3), co-expressed from pST39, purified (Ni-NTA, Superose 6); copies: 2 + +
T3 sequence (looked up) 1: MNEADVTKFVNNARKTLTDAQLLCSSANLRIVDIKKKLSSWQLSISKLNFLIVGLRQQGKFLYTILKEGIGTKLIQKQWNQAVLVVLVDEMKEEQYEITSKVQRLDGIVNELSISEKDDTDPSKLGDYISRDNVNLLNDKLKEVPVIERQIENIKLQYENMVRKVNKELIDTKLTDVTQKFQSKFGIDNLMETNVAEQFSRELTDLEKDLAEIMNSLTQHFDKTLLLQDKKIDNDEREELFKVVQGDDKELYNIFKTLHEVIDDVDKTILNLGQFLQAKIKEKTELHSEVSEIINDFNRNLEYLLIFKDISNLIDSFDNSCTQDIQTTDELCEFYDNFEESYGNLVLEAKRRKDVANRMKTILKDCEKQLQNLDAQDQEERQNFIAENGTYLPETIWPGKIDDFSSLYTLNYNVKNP
T3 sequence (looked up) 2: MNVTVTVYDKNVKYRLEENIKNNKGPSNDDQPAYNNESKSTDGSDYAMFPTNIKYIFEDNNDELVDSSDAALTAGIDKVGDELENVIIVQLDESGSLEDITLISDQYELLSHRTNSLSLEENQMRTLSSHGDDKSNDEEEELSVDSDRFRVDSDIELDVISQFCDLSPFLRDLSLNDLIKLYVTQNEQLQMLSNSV
T3 sequence (looked up) 3: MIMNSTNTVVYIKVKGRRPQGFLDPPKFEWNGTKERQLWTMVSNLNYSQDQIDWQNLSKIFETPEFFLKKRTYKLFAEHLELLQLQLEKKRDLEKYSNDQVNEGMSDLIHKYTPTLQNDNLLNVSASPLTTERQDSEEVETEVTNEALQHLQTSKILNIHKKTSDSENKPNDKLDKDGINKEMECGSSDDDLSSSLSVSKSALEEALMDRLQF

- binding result [1]: binds
- binding result [2]: binds
- binding result [3]: binds
B1: GST-Atg13 (351–458) (domain or fragment, Saccharomyces cerevisiae, UniProt Q06628 351-458, looked up)
chain: TRANSFEPQSWQKKVYPISRPVQPFKVGSIGSQSASRNPSNSSFFNQPPVHRPSMSSNYGPQMNIEGTSVGSTSKYSSSFGNIRRHSSVKTTENAEKVSKAVKSPLQP
notes: a TEV cleavage site follows the GST tag; source: recombinant from pGST2 vector, purified (Glutathione Sepharose 4B, HiLoad Superdex 200 16/60); not shown: GST, N-terminal, kept

— PMC5669500, “Scaffolding the cup-shaped double membrane in autophagy” (PLoS Computational Biology, 2017)
